Reference: article PMC9162472, “Improved furfural tolerance in Escherichia coli mediated by heterologous NADH-dependent benzyl alcohol dehydrogenases” (Biochemical Journal, 2022)

Tests used:
Assay in all cases: purified protein
Details in all cases: 0.2 mM NADH, 50 mM potassium phosphate pH 7.2, 200 mM NaCl, 37 °C, error is 95% CI, kcat m^-1 [sic]
purified protein [1] = substrate: O=Cc1ccc(CO)o1; format: biochemical, Acinetobacter calcoaceticus
purified protein [2] = substrate: O=Cc1ccccc1; format: biochemical, Acinetobacter calcoaceticus
purified protein [3] = substrate: O=Cc1ccco1; format: biochemical, Acinetobacter calcoaceticus
purified protein [4] = substrate: CCCCCC=O; format: biochemical, Burkholderia ambifaria
purified protein [5] = substrate: O=Cc1ccc(CO)o1; format: biochemical, Burkholderia ambifaria
purified protein [6] = substrate: O=Cc1ccccc1; format: biochemical, Burkholderia ambifaria
purified protein [7] = substrate: O=Cc1ccco1; format: biochemical, Burkholderia ambifaria
purified protein [8] = substrate: O=Cc1ccc(CO)o1; format: biochemical, Pseudomonas putida
purified protein [9] = substrate: O=Cc1ccccc1; format: biochemical, Pseudomonas putida
purified protein [10] = substrate: O=Cc1ccco1; format: biochemical, Pseudomonas putida

B1: AcBAD (Acinetobacter calcoaceticus) (protein)
chain: MSELKDIIAAVTPCKGADFELQALKIRQPQGDEVLVKVVATGMCHTDLIVRDQYYPVPLPAVLGHEGSGIIEAIGPNVTELQVGDHVVLSYGYCGKCTQCNTGNPAYCSEFFGRNFSGADSEGNHALCTHDQGVVNDHFFAQSSFATYALSRENNTVKVTKDVPIELLGPLGCGIQTGAGACINALKVTPASSLVTWGAGAVGLSALLAAKVCGASIIIAVDIVESRLELAKQLGATHVINSKTQDPVAAIKEITDGGVNFALESTGRPEILKQGVDALGILGKIAVVGAPQLGTTAQFDVNDLLLGGKTILGVVEGSGSPKKFIPELVRLYQQGKFPFDQLVKFYAFDEINQAAIDSHKGITLKPIIKIA
With B1 the Km (purified protein [1]) was 294 ± 277 µM, the kcat (purified protein [1]) was 0.565 ± 0.146 s⁻¹ and the kcat/Km (purified protein [1]) was 1670 ± 1670 M⁻¹ s⁻¹. The Km (purified protein [2]) was 412 ± 251 µM, the kcat (purified protein [2]) was 6.57 ± 1.34 s⁻¹ and the kcat/Km (purified protein [2]) was 16700 ± 10000 M⁻¹ s⁻¹. It also gave a Km (purified protein [3]) of 359 ± 224 µM, a kcat (purified protein [3]) of 2.73 ± 0.467 s⁻¹ and a kcat/Km (purified protein [3]) of 8330 ± 3330 M⁻¹ s⁻¹.

B2: BaBAD (Burkholderia ambifaria MC40-6) (protein)
chain: MYTENDTRAVTAAVARAAGAPFSIEPARIRAPRGDEVLVRVVATGLCHTDLIVRDQYYPVPLPAVLGHEGAGVVEAVGPNVKTLAAGDHVVLTYGACGHCASCAGGHGAYCRQFFALNFGGADADGQTALRDAAGEPLHDHFFAQSSFASYALARENNAIKVPKEAPLELLGPLGCGIQTGAGAVINSLAVRTGSSFASFGAGAVGMSAVMAARIAGATTIIAVDIVPSRLALALELGATHAINSKEVDVVDAIREITGGGVDYALESTGLPAVLSQGIDALGSRGTMGVVGAPKLGTKAEFDVNSLLLGGHTIRGIVEGDSVPQTFIPQLVQLHLQGRFPFDRLVKFYPLEQINQAAADSSSGITLKPILRLPH
For B2, the Km (purified protein [4]) was 672 ± 374 µM, the kcat (purified protein [4]) was 0.758 ± 0.163 s⁻¹ and the kcat/Km (purified protein [4]) was 1170 ± 667 M⁻¹ s⁻¹. The Km (purified protein [5]) was 377 ± 242 µM, the kcat (purified protein [5]) was 1.09 ± 0.192 s⁻¹ and the kcat/Km (purified protein [5]) was 3330 ± 1670 M⁻¹ s⁻¹. It also gave a Km (purified protein [6]) of 78.3 ± 30 µM, a kcat (purified protein [6]) of 0.865 ± 0.0785 s⁻¹ and a kcat/Km (purified protein [6]) of 11700 ± 5000 M⁻¹ s⁻¹. For the same protein, the Km (purified protein [7]) was 75.2 ± 62.2 µM, the kcat (purified protein [7]) was 0.575 ± 0.112 s⁻¹ and the kcat/Km (purified protein [7]) was 8330 ± 6670 M⁻¹ s⁻¹.

B3: XylB (Pseudomonas putida) (protein)
chain: EIKAAIVRQKNGPFLLEHVALNEPAEDQVLVRLVATGLCHTDLVCRDQHYPVPLPMVFGHEGAGVVERVGSAVKKVQPGDHVVLTFYTCGSCDACLSGDPTSCANSFGPNFMGRSVTGECTIHDHQGAEVGASFFGQSSFATYALSYERNTVKVTKDVPLELLGPLGCGIQTGAGSVLNALNPPAGSSIAIFGAGAVGLSAVMAAVVAGCTKIIVVDVKENRLKLADELGATHVINAASSDPVEKIKEICAGGVPYVLETSGLPSVLQQAILSSAIGGEIGIVGAPPMGATIPVDINFLLFNRKLRGIVEGQSISDIFIPRLVELYRQGKFPFDKLLKFYSFDEINQAAEDSENGITLKPVLRIS
Work on B3 yielded a Km (purified protein [8]) of 461 ± 52.1 µM, a kcat (purified protein [8]) of 1.16 ± 0.0453 s⁻¹ and a kcat/Km (purified protein [8]) of 3330 ± 333 M⁻¹ s⁻¹. It also gave a Km (purified protein [9]) of 21.2 ± 16.2 µM, a kcat (purified protein [9]) of 0.192 ± 0.0343 s⁻¹ and a kcat/Km (purified protein [9]) of 8330 ± 6670 M⁻¹ s⁻¹. The Km (purified protein [10]) was 234 ± 153 µM, the kcat (purified protein [10]) was 2.45 ± 0.467 s⁻¹ and the kcat/Km (purified protein [10]) was 10000 ± 6670 M⁻¹ s⁻¹.
